Laboratory results: PMC7774594, “Functional Characterization of Primordial Protein Repair Enzyme M38 Metallo-Peptidase From Fervidobacterium islandicum AW-1” (Frontiers in Molecular Biosciences, 2020)
One block for each molecule: values may come before it.

Assays:
[1] = target: T1, FiBAP (M38 β-aspartyl peptidase from Fervidobacterium islandicum AW-1) (Fervidobacterium islandicum, UniProt A0AAI8CML9); experiment: X-ray crystal structure, […] Å; format: binding; conditions: co-crystallised with Cbz-β-DL, but only the β-DL moiety has density; wild type; binuclear Zn active site; pH about 5
T1 construct: gene iadA; full length (M1-E386), 6xHis tag (N-terminal per methods with pET-28a, C-terminal per results), E. coli BL21(DE3); 42 kDa monomer, 318 kDa octamer (tetramer of dimers); binuclear Zn
T1 sequence (A0AAI8CML9 1-387): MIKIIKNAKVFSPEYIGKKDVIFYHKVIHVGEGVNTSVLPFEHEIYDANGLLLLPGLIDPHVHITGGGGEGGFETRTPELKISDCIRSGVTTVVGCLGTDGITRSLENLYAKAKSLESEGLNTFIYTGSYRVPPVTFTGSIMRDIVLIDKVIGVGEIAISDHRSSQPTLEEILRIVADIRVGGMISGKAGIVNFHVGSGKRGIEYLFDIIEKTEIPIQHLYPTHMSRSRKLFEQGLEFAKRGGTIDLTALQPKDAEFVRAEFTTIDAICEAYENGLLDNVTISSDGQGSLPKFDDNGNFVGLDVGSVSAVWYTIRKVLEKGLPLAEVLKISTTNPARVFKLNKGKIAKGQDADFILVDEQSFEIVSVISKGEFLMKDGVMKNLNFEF

[2] = target: T1, FiBAP (M38 β-aspartyl peptidase from Fervidobacterium islandicum AW-1); experiment: enzyme activity inhibition (data not shown); format: biochemical; conditions: substrate analog inhibitor, conditions not given
[3] = target: M38 β-aspartyl peptidase from Fervidobacterium islandicum AW-1 (FiBAP) (Fervidobacterium islandicum AW-1); experiment: crystal structure; hanging drop vapor diffusion at 20°C; ligand-free (I422, one subunit in the asymmetric unit, 2.6 Å) and with Cbz-β-Asp-Leu (P22(1)2, four subunits, 2.7 Å); octamer (tetramer of dimers) from symmetry-related molecule analysis
[4] = target: M38 β-aspartyl peptidase from Fervidobacterium islandicum AW-1 (FiBAP) (Fervidobacterium islandicum AW-1); experiment: SEC; Superdex 200 10/300 GL, 25 mM Tris-HCl pH 7.5, 150 mM NaCl; calibrated with blue dextran, thyroglobulin, ferritin, aldolase, conalbumin, ovalbumin; apparent Mr 318,000 against 42,000 by SDS-PAGE; octamer
[5] = substrate: CC(C)C[C@H](NC(=O)C[C@H](N)C(=O)O)C(=O)O; experiment: ninhydrin assay of free amino acids, Michaelis-Menten fit; format: biochemical, Fervidobacterium islandicum; conditions: 50 mM HEPES pH 8.0, 1 mM CoCl2, 80°C, 10 min, 1–32 mM substrate
Text: ninhydrin assay of free amino acids, Michaelis-Menten fit on FiBAP ([…] β-aspartyl peptidase from Fervidobacterium islandicum AW-1) | steady-state kinetics analysis of FiBAP with β-DL as substrate, yielding Km and Vmax values

Molecule: CC(C)C[C@H](NC(=O)C[C@H](N)C(=O)O)C(=O)O [β-Asp-Leu]
X-ray crystal structure, 2.7 Å [1]: included distinct electron density only for the β-DL moiety lacking carbamazepine (Cbz)

Molecule: CC(C)C[C@H](NC(=O)C[C@H](NC(=O)OCc1ccccc1)C(=O)O)C(=O)O [N-carbobenzoxy-β-Asp-Leu]
enzyme activity inhibition (data not shown) [2]: our substrate analog (Cbz-β-DL) containing Cbz inhibited enzyme activity in our enzyme assays

stoichiometry N [3]: 8
stoichiometry N [4]: 8
Molecule: M38 β-aspartyl peptidase from Fervidobacterium islandicum AW-1 (FiBAP) (enzyme)

B1: FiBAP (M38 β-aspartyl peptidase from Fervidobacterium islandicum AW-1) (Fervidobacterium islandicum) (protein)
chain: MIKIIKNAKVFSPEYIGKKDVIFYHKVIHVGEGVNTSVLPFEHEIYDANGLLLLPGLIDPHVHITGGGGEGGFETRTPELKISDCIRSGVTTVVGCLGTDGITRSLENLYAKAKSLESEGLNTFIYTGSYRVPPVTFTGSIMRDIVLIDKVIGVGEIAISDHRSSQPTLEEILRIVADIRVGGMISGKAGIVNFHVGSGKRGIEYLFDIIEKTEIPIQHLYPTHMSRSRKLFEQGLEFAKRGGTIDLTALQPKDAEFVRAEFTTIDAICEAYENGLLDNVTISSDGQGSLPKFDDNGNFVGLDVGSVSAVWYTIRKVLEKGLPLAEVLKISTTNPARVFKLNKGKIAKGQDADFILVDEQSFEIVSVISKGEFLMKDGVMKNLNFEF
notes: full length (M1-E386), 6xHis tag (N-terminal per methods with pET-28a, C-terminal per results), E. coli BL21(DE3); 42 kDa monomer, 318 kDa octamer (tetramer of dimers); binuclear Zn
Km [5]: 5.23 ± 1.59 mg/mL
